Values of other authors, collected in publication PMC6255930.

Target: hemopexin (Homo sapiens) (UniProt P02790)
Chain of UniProt P02790 (P02790 24-462): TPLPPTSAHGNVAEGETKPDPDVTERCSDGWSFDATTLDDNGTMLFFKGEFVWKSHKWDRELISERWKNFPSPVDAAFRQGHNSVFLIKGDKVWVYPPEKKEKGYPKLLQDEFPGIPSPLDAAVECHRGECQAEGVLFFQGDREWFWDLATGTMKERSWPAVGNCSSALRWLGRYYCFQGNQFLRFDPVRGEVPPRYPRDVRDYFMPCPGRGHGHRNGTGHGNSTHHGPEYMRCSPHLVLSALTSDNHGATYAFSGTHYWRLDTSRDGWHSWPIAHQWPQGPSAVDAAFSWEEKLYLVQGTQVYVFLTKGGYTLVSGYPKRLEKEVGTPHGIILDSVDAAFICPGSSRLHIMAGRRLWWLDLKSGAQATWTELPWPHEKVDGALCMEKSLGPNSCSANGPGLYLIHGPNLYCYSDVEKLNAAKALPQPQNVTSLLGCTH

- Kd: 4 nM
Substance: LRP1 (from UniProt Q07954)
